# Source: patent US7829301B2, “Screening assays for binding antagonists of the AMD-associated variant of factor H (H384)” (The University of Manchester, priority 2006, dated 2010)
# Experiments:
# [1] = tested on: necrotic Jurkat T cells; test: Flow cytometry binding to necrotic cells; assay type: cell-based; conditions: 10 μg/ml
# Description: Jurkat T cells (ATCC), were grown in RPMI, supplemented with glutamine, penicillin, streptomycin and 10% (v/v) heat inactivated FCS (all from Invitrogen). Necrosis was induced by heat whereby the cells were brought to a concentration of 10^6 per ml and incubated at 56° C. for 30 minutes in RPMI 1640 without FCS (Trouw et al. (2005) J. Exp. Med. 201, 1937-1948).
# Binding of FHCCP6-8 variants to necrotic cells was analyzed using flow cytometry. Protein binding was analyzed by incubating cells with varying concentrations of the FHCCP6-8 variants (0 to 10 μg/ml) in FACS binding buffer (10 mM HEPES, 150 mM NaCl, 5 mM KCl, 1 mM MgCl2, 1.8 mM CaCl2), with shaking for 30 minutes at room temperature. After washing twice in the same buffer, cells were stained with goat anti-FH polyclonal antibodies (Quidel) for 30 minutes at room temperature. This was followed by matched FITC-labelled secondary antibodies (Dako).
# [2] = target: T1, FMOD (Bos taurus, UniProt P13605); test: Protein/protein binding assay with coated FMOD; parameters: species or system bovine
# T1 construct: FMOD was isolated from bovine articular cartilage; from tissue; host or cells: bovine articular cartilage
# T1 sequence (P13605 19-376): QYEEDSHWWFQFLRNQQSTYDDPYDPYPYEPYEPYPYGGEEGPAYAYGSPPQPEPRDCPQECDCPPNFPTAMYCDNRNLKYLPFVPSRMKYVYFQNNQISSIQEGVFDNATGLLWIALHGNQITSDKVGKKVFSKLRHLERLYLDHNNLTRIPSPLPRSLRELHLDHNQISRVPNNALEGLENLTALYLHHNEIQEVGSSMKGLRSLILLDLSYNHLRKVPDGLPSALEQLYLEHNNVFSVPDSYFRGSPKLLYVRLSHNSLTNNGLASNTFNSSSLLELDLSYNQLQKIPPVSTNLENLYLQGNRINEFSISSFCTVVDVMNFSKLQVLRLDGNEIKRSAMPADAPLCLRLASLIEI
# Description: FMOD was isolated from bovine articular cartilage (Heinghrd et al., (1986) J. Biol. Chem. 261, 13866-13872) and recombinant CRP was obtained from Calbiochem. Deglycosylated FMOD was prepared by treatment with N-glycosiadase F (Roche Applied Science) as previously described (Sjöberg et al. (2005) J. Biol. Chem. 280, 32301-32308).
# CRP or FMOD was coated overnight at 4° C. onto microtiter plates (Maxisorp, Nunc) at a concentration of 10 μg/ml in 75 mM sodium carbonate buffer, pH 9.6. Wells treated only with coating buffer or 1% (w/v) BSA (Sigma) in coating buffer (for the assays involving FMOD) were used as negative controls. Between each step the wells were washed extensively with 50 mM Tris-HCl, 150 mM NaCl, 0.1% (v/v) Tween 20, pH 7.5. All wells were blocked with 1% (w/v) BSA (Sigma) in phosphate buffered saline (Invitrogen) for 1 hour at 37° C. […] The amount of bound protein was assessed using a goat polyclonal anti-FH antibody (Quidel, Cat # A312) followed by HRP-labeled anti-goat secondary antibodies (Dako) and the OPD development kit (Dako). Detection of biotinylated protein was performed using a StreptABComplex/HRP-kit from Dako, and in both cases the absorbance at 490 nm was measured to quantify protein binding.
Molecule,binding to necrotic cells relative to the other variant [1],"binding to immobilized FMOD relative to the other variant ([2]; biotinylated FHCCP6-8 variants, all concentrations tested)",affinity for FMOD compared to H384 variant ([2]; direct binding assay)
"FHCCP6-8(H384): recombinant protein of Factor H CCPs 6-8, H384 allotype, with N-terminal non-authentic glycine (SEQ ID NO: 1) (protein, listed as Homo sapiens, VARIANT (1)...(188) Protein sequence of the FHCCP6-8 (H384) construct) MGTLKPCDYPDIKHGGLYHENMRRPYFPVAVGKYYSYYCDEHFETPSGSYWDHIHCTQDGWSPAVPCLRKCYFPYLENGYNQNHGRKFVQGKSIDVACHPGYALPKAQTTVTCMENGWSPTPRCIRVKTCSKSSIDIENGFISESQYTYALKEKAKYQCKLGYVTADGETSGSITCGKDGWSAQPTCI",binds necrotic cells better,–,–
"FHCCP6-8(Y384): recombinant Factor H CCPs 6-8, Y384 variant obtained by site-directed mutagenesis (SEQ ID NO: 3) (protein, listed as Homo sapiens, VARIANT (1)...(188) FHCCP6-8 (Y384 allotype of mature Factor H)) MGTLKPCDYPDIKHGGLYHENMRRPYFPVAVGKYYSYYCDEHFETPSGSYWDHIHCTQDGWSPAVPCLRKCYFPYLENGYNQNYGRKFVQGKSIDVACHPGYALPKAQTTVTCMENGWSPTPRCIRVKTCSKSSIDIENGFISESQYTYALKEKAKYQCKLGYVTADGETSGSITCGKDGWSAQPTCI",–,significantly stronger signals,affinity is increased
